These results are taken from article PMC2119758.

The test deals with rabbit muscle F-actin (polymerized rabbit muscle actin) (rabbit) (UniProt P68135). The test can be described thus: co-sedimentation.

For “GST.p80 fusion protein (cortactin p80 residues 55-526) (domain or fragment)”, the stoichiometry N (actin monomers per GST.p80) worked out at 14.

Consider “bacterially expressed cortactin (p80 residues 55-526) after removal of GST with thrombin (domain or fragment)”, for which the fold increase of affinity against GST.p80 was found to be 2 fold.
